Measured values taken from US20220048967A1 (published 2022).
Numbered stars: 1 amine (or outer) side, 2 acyl side, 3 side chain; on linkers, the order of the positions; unused ones are H or OH. Square brackets hold non-standard residues; d marks the D form. Side chains are listed from the residue outwards. Ends that are not written are not given here. * marks the point of attachment. C20 diacid = O=C(O)CCCCCCCCCCCCCCCCCCC(=O)*; γGlu = O=C(O)[C@H](CCC(=O)[*:2])N[*:1]; αMeF = C[C@](N)(Cc1ccccc1)C(=O)O; cTA = not defined here; AEEA = NCCOCCOCC(=O)O; Aib = CC(C)(N)C(=O)O

T1: human gastric inhibitory peptide receptor (GIPR) (human, UniProt P48546 22-466)
T1 sequence (looked up): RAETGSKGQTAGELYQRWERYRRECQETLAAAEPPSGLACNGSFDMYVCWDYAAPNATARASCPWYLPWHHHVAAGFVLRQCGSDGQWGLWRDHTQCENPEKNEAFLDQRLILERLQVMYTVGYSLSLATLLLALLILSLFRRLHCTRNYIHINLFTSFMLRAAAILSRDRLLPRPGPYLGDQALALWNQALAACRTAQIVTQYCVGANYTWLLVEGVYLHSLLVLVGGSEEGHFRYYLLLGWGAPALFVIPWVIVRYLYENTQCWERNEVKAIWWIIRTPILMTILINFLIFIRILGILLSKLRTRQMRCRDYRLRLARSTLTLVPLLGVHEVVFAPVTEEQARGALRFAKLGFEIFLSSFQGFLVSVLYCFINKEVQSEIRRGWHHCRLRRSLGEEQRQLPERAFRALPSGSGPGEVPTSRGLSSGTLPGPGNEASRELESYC


Legend:
Test in all cases: cell-based or functional assay
[1] = molecular target: T1, human gastric inhibitory peptide …
[2] = molecular target: human GLP-1 receptor (GLP-1R) (human, UniProt P43220 24-463)
human GLP-1 receptor = human GLP-1 receptor (human, UniProt P43220 24-463)

| Binder | hGIPR cAMP EC50 ratio [1] | hGIPR cAMP Rel EC50 [1] | hGLP1R cAMP EC50 ratio [2] | hGLP1R cAMP Rel EC50 [2] | hGLP1R GTPgS % Top (human GLP-1 receptor) | hGLP1R GTPgS Rel EC50 (human GLP-1 receptor) |
| --- | --- | --- | --- | --- | --- | --- |
| Y[Aib]EGT[αMeF]TSDYSIXLDKK([AEEA-AEEA-γGlu-C20 diacid])AQ[Aib]AFIEYLIEAGPSSGAPPPS-NH2 (not fully specified (residue 13); printed as Y-Aib-EGT-αMeF-TSDYSI-αMeF-LDKK((2-[2-(2-Amino-ethoxy)-ethoxy]-acetyl)2-(γ-Glu)-CO-(CH2)18-CO2H)AQ-Aib-AFIEYLIEAGPSSGAPPPS-NH2) [Example 126] | 2.53 | 0.0685 nM | 0.869 | 0.0715 nM |  |  |
| Y[Aib][cTA]GT[αMeF]TSDYSIXLDEK([AEEA-AEEA-γGlu-C20 diacid])AQ[Aib]AFIEYLIEGGPSSGAPPPS-NH2 (not fully specified (residue 13); printed as Y-Aib-cTA-GT-αMeF-TSDYSI-αMeF-LDEK((2-[2-(2-Amino-ethoxy)-ethoxy]-acetyl)2-(γ-Glu)-CO-(CH2)18-CO2H)AQ-Aib-AFIEYLIEGGPSSGAPPPS-NH2) [Example 120] | 1.67 | 0.122 nM | 0.319 | 0.201 nM |  |  |
| F[Aib]EGTFTSDYSILLDKK([AEEA-AEEA-γGlu-C20 diacid])AQ[Aib]AFIEYLIEGGPSSGAPPPS-NH2 [Example 326] |  |  |  |  | 61.6% | 0.663 nM |
| YXEGTFTSDYSIXLDKKAQXEFIEYLIEGGPSSG (Aib2, αMeL13, K17 conjugated to (2-[2-(2-Amino-ethoxy)-ethoxy]-acetyl)2-(γ-Glu)-CO-(CH2)16-CO2H, Aib20, C-terminal amide (NH2)) [Example 304] |  |  |  |  | 77.1% | 0.561 nM |
| YXEGTFTSDYSIXLDKKAQXEFIEYLIAGGPSSG (Aib2, αMeL13, K17 conjugated to (2-[2-(2-Amino-ethoxy)-ethoxy]-acetyl)2-(γ-Glu)-CO-(CH2)16-CO2H, Aib20, C-terminal amide (NH2)) [Example 306] |  |  |  |  | 76.1% | 0.378 nM |
| Y[Aib]EGT[αMeF]TSDYSIXLDEK([AEEA-AEEA-γGlu-C20 diacid])AQ[Aib]EFIEYLIEGGPSSG-NH2 (not fully specified (residue 13); printed as Y-Aib-EGT-αMeF-TSDYSI-αMeF-LDEK((2-[2-(2-Amino-ethoxy)-ethoxy]-acetyl)2-(γ-Glu)-CO-(CH2)18-CO2H)AQ-Aib-EFIEYLIEGGPSSG-NH2) [Example 124] | 2.18 | 0.0762 nM | 1.29 | 0.0475 nM |  |  |
| Y[Aib]EGT[αMeF]TSDYSIXLDKK([AEEA-AEEA-γGlu-C20 diacid])AQ[Aib]SFIEYLIEGGPSSGAPPPS-NH2 (not fully specified (residue 13); printed as Y-Aib-EGT-αMeF-TSDYSI-αMeF-LDKK((2-[2-(2-Amino-ethoxy)-ethoxy]-acetyl)2-(γ-Glu)-CO-(CH2)18-CO2H)AQ-Aib-SFIEYLIEGGPSSGAPPPS-NH2) [Example 138] |  | 0.0581 nM |  |  |  |  |
| Y[Aib]EGT[αMeF]TSDYSIXLDKK([AEEA-AEEA-γGlu-C20 diacid])AQ[Aib]EFIEYLIEGGPSSG-NH2 (not fully specified (residue 13); printed as Y-Aib-EGT-αMeF-TSDYSI-αMeF-LDKK((2-[2-(2-Amino-ethoxy)-ethoxy]-acetyl)2-(γ-Glu)-CO-(CH2)18-CO2H)AQ-Aib-EFIEYLIEGGPSSG-NH2) [Example 123] | 4.04 | 0.0423 nM | 1.58 | 0.0344 nM |  |  |
| Y[Aib]EGTFTSDYSILLDKK([AEEA-AEEA-γGlu-C20 diacid])AQ[Aib]AFIEYLIAGGPSSG-NH2 (N-terminus assumed; SMILES CC[C@H](C)[C@H](NC(=O)[C@H](CC(C)C)NC(=O)[C@H](Cc1ccc(O)cc1)NC(=O)[C@H](CCC(=O)O)NC(=O)[C@@H](NC(=O)[C@H](Cc1ccccc1)NC(=O)[C@H](C)NC(=O)C(C)(C)NC(=O)[C@H](CCC(N)=O)NC(=O)[C@H](C)NC(=O)[C@H](CCCCNC(=O)COCCOCCNC(=O)COCCOCCNC(=O)CC[C@H](NC(=O)CCCCCCCCCCCCCCCCCCC(=O)O)C(=O)O)NC(=O)[C@H](CCCCN)NC(=O)[C@H](CC(=O)O)NC(=O)[C@H](CC(C)C)NC(=O)[C@H](CC(C)C)NC(=O)[C@@H](NC(=O)[C@H](CO)NC(=O)[C@H](Cc1ccc(O)cc1)NC(=O)[C@H](CC(=O)O)NC(=O)[C@H](CO)NC(=O)[C@@H](NC(=O)[C@H](Cc1ccccc1)NC(=O)[C@@H](NC(=O)CNC(=O)[C@H](CCC(=O)O)NC(=O)C(C)(C)NC(=O)[C@@H](N)Cc1ccc(O)cc1)[C@@H](C)O)[C@@H](C)O)[C@@H](C)CC)[C@@H](C)CC)C(=O)N[C@@H](C)C(=O)NCC(=O)NCC(=O)N1CCC[C@H]1C(=O)N[C@@H](CO)C(=O)N[C@@H](CO)C(=O)NCC(N)=O) [Example 317] |  |  |  |  | 53.7% | 0.536 nM |
